Numbering of substitutions follows the chain as printed.
B1: E9.71(M)-3 (antibody, human IgG1, V domains shown)
VH: EVQLQESGPGLVKPSETLSLTCTVSGGSISSSSYYWGWIRQPPGKGLEWIGDIYYTGSTYYNPSLKSRVTISVDTSKNQFSLKLSSVTAADTAVYYCARQALAMGGGSDKWGQGTLVTVSS
VL: YELTQPPSVSVSPGQTASITCSGQRLGDKYASWYQQKPGQSPVLVIYEDSKRPSGIPERFSGSNSGDTATLTISGTQPMDEADYYCQAWDRDTGVFGGGTKLTVLG
B2: E9.17 (antibody, V domains shown)
VH: B1 VH with Q100E, A101E, L102A, A103I, M104L, K110Y
VL: SYELTQPPSVSVSPGQTASITCSGQRLGDKYASWYQQKPGQSPVLVIYEDSKRPSGIPERFSGSNSGDTATLTISGTQPMDEADYYCQAWDRDTGVFGYGTKVTVL
notes: also called DLL4-E9-17 hIgG1/L
B3: E9.4 (antibody, V domains shown)
VH: B1 VH with Q100Y, A101D, L102V, A103S, M104L, G107S, K110H
VL: B2 VL
notes: also called DLL4-E9-4 hIgG1/L
B4: E9.12B (antibody, V domains shown)
VH: B1 VH with S33N, Q100E, L102V, A103S, M104F, S108A, K110S
VL: SYELTQPPSVSVSPGQTASITCSGDGLGDKYVSWYQQKPGQSPVLVIYEDSTRPSGIPERFSGSNSGDTATLTISGTQPMDEADYYCQAWDSESGVFGSGTKVT
B5: E9.10H (antibody, V domains shown)
VH: B1 VH with S33G, S58N, S67N, Q100E, A101E, L102V, A103I, M104L, S108A, K110Q
VL: B4 VL with D25E, G26S, T52K, P79A, S92G, S94T
B6: E9.66 (antibody, V domains shown)
VH: B1 VH with Q100E, A101G, L102V, A103P, M104L, S108A
VL: B2 VL
notes: also called DLL4-E9-66 hIgG1/L
B7: E9.48 (antibody, V domains shown)
VH: B1 VH with S33G, Y54N, T56R, Q100E, A101D, L102V, A103I, M104L, G105R, K110Y
VL: B2 VL
notes: also called DLL4-E9-48 hIgG1/L
B8: E9.22 (antibody, V domains shown)
VH: EVQLQESGPGLVKPSETLSLTCTVSGGSISNSRYHWGWIRQPPGKGLEWIGDIYYTGSTYYNPSLKGRVTISVDTSKNQFSLKLSSVTAADTAVYYCAREDVILRGGSDYWGQGTLVTVSS
VL: B2 VL
notes: also called DLL4-E9-22 hIgG1/L
B9: E9.13 (antibody, V domains shown)
VH: B8 VH with N31S, R33S, H35Y, G67S
VL: B2 VL with Q25D, R26T, A32V, K52E, R92S, D93E, Y99S
notes: also called DLL4-E9-13 hIgG1/L
B10: E9.65 (antibody, V domains shown)
VH: B8 VH with S30R
VL: B2 VL
B11: E9.14 (antibody, V domains shown)
VH: B8 VH with P42S, G67S, A90E
VL: B2 VL
notes: also called DLL4-E9-14 hIgG1/L
B12: E9.38 (antibody, V domains shown)
VH: B8 VH with N31S, R33S, H35Y, G67S
VL: B2 VL with A32V, T94V, Y99S
notes: also called DLL4-E9-38 hIgG1/L
B13: E9.10E (antibody, V domains shown)
VH: EVQLQESGPGLVKPSETLSLTCTVSGGSINSGNYYWGWIRQPPGKGLEWIGDISYTGSTYYNPSLKSRVTISVDTSKNQFSLKLSSVTAADTAVYYCAREDVMYGGGGDSWGQGTLVTVSS
VL: B4 VL with D25E, T52E, P79A, S94A
B14: E9.5E (antibody, V domains shown)
VH: B1 VH with Y54N, T56I, Q100E, A101S, L102V, A103P, M104L, S108A, K110E
VL: B4 VL with G26M, T52Q, S94T
B15: E9.18 (antibody, V domains shown)
VH: B8 VH with N31S, R33G, H35Y, Y54N, T56A, G67S
VL: B2 VL
notes: also called DLL4-E9-18 hIgG1/L
B16: E9.11 (antibody, V domains shown)
VH: B1 VH with Q100E, L102V, A103P, M104L, K110Y
VL: B2 VL
notes: also called DLL4-E9-11 hIgG1/L
B17: A10.L45 (antibody, V domains shown)
VH: EVQLVESGGGLVKSGGSLRLSCAASGFTFRSHWMSWVRQAPGKGLEWVAIISYDGSNKYSADSVKGRFTISRDNSKNTLYLQLNSLRAEDTAVYYCAKAGGGNVGFDIWGQGTMVTVSS
VL: SYELTQPPSVSVSPGQTASITCSADELGTQYVSWYQQKPGQSPVLVIYQDATRPSGIPERFSGSNSGNTATLTISGTQAMDEADYYCQAWDRSGVVFGGGTKLTVL
B18: A10.K30 (antibody, V domains shown)
VH: B17 VH with L11V, K13Q, S14P, R30G, S31N, I50D, Y53S, S56R, N57Y, S60Y
VL: B17 VL with E26K, Q30K, T52K, A79T, Y86L, A89S, G94D
B19: A10.K42 (antibody, V domains shown)
VH: B17 VH with K13Q, S14P, R30Q, I50M, S56T, N57I, S60Y
VL: B17 VL with E26K, Q30K, T52K, A79T, Y86L, A89S, G94D
B20: A10.L73 (antibody, V domains shown)
VH: B17 VH
VL: B17 VL with A24G, E26N, T29S, T52Q
B21: E9.1F (antibody, V domains shown)
VH: B13 VH with N30S, N33S, S54N, T56I, D101A, M103S, Y104F, G108A
VL: B2 VL with Q25D, A32V, K52Q, P79A, R92M, D93E, T94A, Y99S
notes: also called E9.IF
B22: E9.71(M) (antibody, human IgG1, V domains shown)
VH: B1 VH
VL: SYELTQPPSVSVSPGQTASITCSGQRLGDKYASWYQQKPGQSPVLVIYEDSKRPSGIPERFSGSNSGDTATLTISGTQPMDEADYYCQAWDRDTGVFGGGTKLTVLG

molecular target: T1, human DLL4 on the cell surface (human, UniProt Q9NR61 27-685); assay: cell-based or functional assay

Binder	Inhibition of Notch activation via huDLL4 cells, coculture (IC50, nM) [nM]
B1	0.65
B2	1

molecular target: T2, mouse DLL4 extracellular domain (mouse, UniProt Q9JI71 27-532); assay: Biacore SPR;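 note: surface plasmon resonance on a Biacore instrument, antibodies captured on immobilized anti-human Fc, purified recombinant DLL4 extracellular domain injected as analyte, binding followed over time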
T2 construct: extracellular domain; also called muDLL4 ECD; Mouse DLL4 ECD
T2 sequence (Q9JI71 27-532): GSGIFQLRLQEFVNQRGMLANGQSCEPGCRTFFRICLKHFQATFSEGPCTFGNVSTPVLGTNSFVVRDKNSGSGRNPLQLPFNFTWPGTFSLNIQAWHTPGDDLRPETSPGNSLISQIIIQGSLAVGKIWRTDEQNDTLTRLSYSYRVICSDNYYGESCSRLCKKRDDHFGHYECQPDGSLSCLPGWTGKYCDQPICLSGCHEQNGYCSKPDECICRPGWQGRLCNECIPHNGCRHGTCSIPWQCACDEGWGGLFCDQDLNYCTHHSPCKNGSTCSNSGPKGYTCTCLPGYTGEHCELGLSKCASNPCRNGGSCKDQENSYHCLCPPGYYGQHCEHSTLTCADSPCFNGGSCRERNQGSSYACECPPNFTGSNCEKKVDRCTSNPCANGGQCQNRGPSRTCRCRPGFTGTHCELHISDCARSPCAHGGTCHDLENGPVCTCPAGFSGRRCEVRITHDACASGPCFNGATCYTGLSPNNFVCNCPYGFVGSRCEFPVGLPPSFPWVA
Method: (§1) Binding of DLL4 antibodies to a purified recombinant DLL4 extracellular domain is determined by surface plasmon resonance-based measurements with a Biacore® instrument (either a Biacore 2000, Biacore 3000, or Biacore T100, GE Healthcare, Piscataway, N.J. US) using running buffer HBS-EPB (10 mM HEPES [pH 7.4], 150 mM NaCl, 3 mM EDTA, 0.1 mg/ml BSA and 0.005% surfactant P20) at 25° C. For example, approximately 9000 RU of goat anti-human Fc specific polyclonal antibody (Thermo Fisher Scientific Inc., Rockford, Ill., US) diluted in 10 mM sodium acetate (pH 4.5) is directly immobilized across a CM5 research grade biosensor chip using a standard amine coupling kit according to manufacturer's instructions and procedures at 25 μg/ml. Unreacted moieties on the biosensor surface are blocked with ethanolamine. For kinetic analysis, rate equations derived from the 1:1 Langmuir binding model are fitted simultaneously to multiple antigen injections (using global fit analysis) with the use of Scrubber 2 (BioLogic Software). […] The equilibrium dissociation constant KD (M) of the reaction between antibodies and the target antigen is then calculated from the kinetic rate constants by the following formula: KD=Koff/Kₒₙ. Binding is recorded as a function of time and kinetic rate constants are calculated. In this assay, on-rates as fast as 10⁶ M⁻¹s⁻¹ and off-rates as slow as 10⁻⁶ s⁻¹ can be measured.

Binder	Kd [nM]	koff [s⁻¹]	kon [M⁻¹ s⁻¹]	binding result
B3	1.12	6.01e-05	53800	–
B4	0.18	1.47e-05	83500	–
B5	0.34	2.23e-05	65300	–
B6	0.5	1.44e-05	28900	–
B7	2.53	4.17e-05	16500	–
B2	0.38	1.41e-05	37000	–
B8	3.5	0.000133	37800	–
B9	4.89	0.000212	43400	–
B10	5.27	0.000136	25700	–
B11	3.49	0.000136	38900	–
B12	9.27	0.000171	18400	–
B13	0.62	9.41e-05	151000	–
B14	0.02	2e-06	89000	–
B15	0.73	1.68e-05	23200	–
B16	0.5	1.39e-05	27700	–
B17	–	–	–	no binding
B18	–	–	–	no binding
B19	–	–	–	no binding
B20	–	–	–	no binding

molecular target: T3, human DLL4 extracellular domain (human, UniProt Q9NR61 27-529); assay: Biacore SPR;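 note: surface plasmon resonance on a Biacore instrument, antibodies captured on immobilized anti-human Fc, purified recombinant DLL4 extracellular domain injected as analyte, binding followed over time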
T3 construct: extracellular domain; coated on plates in the sVEGFR1 assay; also called huDLL4 ECD; Human DLL4 ECD
Method: as §1

Binder	Kd [nM]	koff [s⁻¹]	kon [M⁻¹ s⁻¹]
B3	0.58	3.31e-05	56700
B21	0.05	1.16e-05	218000
B4	0.02	3.1e-06	151000
B5	0.57	5.9e-05	104000
B6	0.078	2.5e-06	32600
B7	6.92	7.59e-05	11000
B2	0.1	4.4e-06	43900
B8	8.46	0.000331	39100
B9	1.33	4.97e-05	37400
B10	14	0.000363	25900
B11	9.14	0.000365	39900
B12	2.75	3.48e-05	12700
B13	0.21	4.62e-05	218000
B14	0.04	6e-06	150000
B15	1.18	1.84e-05	15700
B16	0.48	1.74e-05	36300
B17	0.72	3.16e-05	44000
B18	7.69	0.000274	35700
B19	4.06	0.000406	100000
B20	0.19	9.5e-06	50700

molecular target: T4, mouse DLL4 on the cell surface (mouse, UniProt Q9JI71 27-686); assay: competition FACS, competitor huNotch-1;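 note: stable cell lines displaying human or mouse DLL4 on their surface, Notch binding detected by flow cytometry via R-phycoerythrin streptavidin fluorescence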
T4 construct: whole, on cells; also called HEK293-mDLL4; mDLL4-293G
T4 sequence (Q9JI71 27-686): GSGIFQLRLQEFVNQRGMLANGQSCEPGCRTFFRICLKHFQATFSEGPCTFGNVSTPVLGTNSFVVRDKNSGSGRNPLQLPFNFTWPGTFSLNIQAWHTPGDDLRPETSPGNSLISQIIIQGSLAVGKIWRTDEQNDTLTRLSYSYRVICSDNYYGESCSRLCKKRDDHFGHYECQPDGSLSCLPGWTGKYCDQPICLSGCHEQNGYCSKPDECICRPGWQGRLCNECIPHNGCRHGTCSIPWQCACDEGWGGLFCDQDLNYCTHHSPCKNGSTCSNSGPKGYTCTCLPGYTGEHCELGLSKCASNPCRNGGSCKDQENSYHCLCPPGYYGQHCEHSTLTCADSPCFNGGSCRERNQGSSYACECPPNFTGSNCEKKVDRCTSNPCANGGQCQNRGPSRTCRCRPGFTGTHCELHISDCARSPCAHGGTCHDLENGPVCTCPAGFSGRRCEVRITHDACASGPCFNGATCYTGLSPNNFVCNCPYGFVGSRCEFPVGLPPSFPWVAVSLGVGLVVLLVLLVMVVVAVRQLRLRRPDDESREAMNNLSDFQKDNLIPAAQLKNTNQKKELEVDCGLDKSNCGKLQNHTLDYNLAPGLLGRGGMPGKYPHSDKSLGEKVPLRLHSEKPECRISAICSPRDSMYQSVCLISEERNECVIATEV

Binder	IC50 [nM]
B3	0.3
B21	0.65
B4	0.37
B5	0.6
B6	0.99
B7	1.3
B8	2.63
B22	0.18
B12	1.2
B13	0.36
B14	0.34
B16	2.06

molecular target: T1, human DLL4 on the cell surface; assay: competition FACS, competitor huNotch-1;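 note: stable cell lines displaying human or mouse DLL4 on their surface, Notch binding detected by flow cytometry via R-phycoerythrin streptavidin fluorescence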

Binder	IC50 [nM]
B3	4.3
B21	6.55
B4	4.44
B5	5.65
B6	5.03
B7	9.12
B2	19.8
B8	21.1
B22	2.12
B12	7.76
B13	3.83
B14	3.76
B16	14.8

molecular target: T4, mouse DLL4 on the cell surface; assay: FACS on DLL4 cells

Binder	EC50 [nM]
B3	0.63
B21	0.37
B4	0.71
B5	0.82
B6	0.7
B2	2.57
B8	37.4
B22	0.29
B12	0.13
B13	1.19
B14	0.89
B16	1.45

molecular target: T1, human DLL4 on the cell surface; assay: FACS on DLL4 cells

Binder	EC50 [nM]
B3	1.63
B21	2.65
B4	3.34
B5	3.52
B6	2.02
B2	8
B8	34.3
B22	0.27
B12	1.66
B13	5.1
B14	2.7
B16	4.46

From patent publication US20200255508A1 (AbbVie / Abbott, published 2020)
